Laboratory results from patent publication US20260234242A1 (HAINAN SIMCERE ZAIMING PHARMACEUTICAL, published 2026).

T1: human CDH6 on tumor cells (OVCAR3 cells, PA-1 cells) (human, UniProt P55285 54-790)
T1 sequence: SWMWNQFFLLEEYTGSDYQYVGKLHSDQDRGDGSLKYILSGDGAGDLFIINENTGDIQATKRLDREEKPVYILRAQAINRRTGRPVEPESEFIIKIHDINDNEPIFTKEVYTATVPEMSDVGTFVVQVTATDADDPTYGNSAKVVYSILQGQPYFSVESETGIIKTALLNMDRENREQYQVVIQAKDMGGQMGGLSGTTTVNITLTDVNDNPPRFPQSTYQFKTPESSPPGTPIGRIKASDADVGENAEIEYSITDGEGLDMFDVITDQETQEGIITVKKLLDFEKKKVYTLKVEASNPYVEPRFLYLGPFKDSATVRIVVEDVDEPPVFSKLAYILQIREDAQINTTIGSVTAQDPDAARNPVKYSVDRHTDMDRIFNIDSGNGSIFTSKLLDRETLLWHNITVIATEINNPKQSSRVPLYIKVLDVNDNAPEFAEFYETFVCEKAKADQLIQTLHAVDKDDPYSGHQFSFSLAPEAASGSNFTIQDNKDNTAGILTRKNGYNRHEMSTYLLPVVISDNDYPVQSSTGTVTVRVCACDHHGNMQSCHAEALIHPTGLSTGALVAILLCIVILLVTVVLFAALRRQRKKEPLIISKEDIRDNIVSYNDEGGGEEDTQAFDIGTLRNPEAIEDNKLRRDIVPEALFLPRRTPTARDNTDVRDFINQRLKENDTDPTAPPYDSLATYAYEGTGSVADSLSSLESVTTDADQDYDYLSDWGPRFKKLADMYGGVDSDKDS

T2: monkey CDH6 protein (cynoCDH6 ECD-his) (monkey (cyno), UniProt A0A2K5TW62 19-615)
T2 construct: range 19-615; also called Cyno CDH6-his; not shown: his tag
T2 sequence: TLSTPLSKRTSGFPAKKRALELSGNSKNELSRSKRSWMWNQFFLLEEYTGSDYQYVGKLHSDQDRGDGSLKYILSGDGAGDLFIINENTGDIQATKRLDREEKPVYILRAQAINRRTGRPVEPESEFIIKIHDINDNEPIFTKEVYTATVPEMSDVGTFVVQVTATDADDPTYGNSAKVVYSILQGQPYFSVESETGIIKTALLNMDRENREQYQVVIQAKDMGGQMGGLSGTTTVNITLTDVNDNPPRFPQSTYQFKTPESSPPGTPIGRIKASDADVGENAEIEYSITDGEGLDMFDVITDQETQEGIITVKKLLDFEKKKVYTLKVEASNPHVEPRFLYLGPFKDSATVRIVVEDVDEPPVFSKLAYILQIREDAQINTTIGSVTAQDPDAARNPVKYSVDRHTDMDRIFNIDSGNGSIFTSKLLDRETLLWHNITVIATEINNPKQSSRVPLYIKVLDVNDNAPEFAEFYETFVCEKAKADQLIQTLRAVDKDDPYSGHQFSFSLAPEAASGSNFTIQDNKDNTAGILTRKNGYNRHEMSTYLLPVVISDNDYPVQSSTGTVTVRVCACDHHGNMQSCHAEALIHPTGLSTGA


Key:
[1] = biological target: T1, human CDH6 on tumor cells (OVCAR3 …); assay: FACS, PA-1 cells
Description: (§1) OVCAR3 cells with high expression of CDH6 and PA-1 cells with moderate expression of CDH6 were used to detect the binding activity of the antibodies to the cells. […] The cells were washed once with PBS, counted, resuspended to 2×10⁶ cells/mL in an FACS buffer (PBS+2% FBS), and then added to a 96-well plate at 50 μL/well. The chimeric antibodies were diluted with FACS buffer (PBS+2% FBS) and added to the 96-well plate at 50 μL/well, and the plate was incubated at 4° C. for 1 h. […] The dilution was added to the 96-well plate at 50 μL/well, and the plate was incubated at 4° C. for 1 h. After the plates were centrifuged and washed 2 times with PBS, the cells were resuspended in an FACS buffer. The mean fluorescence intensity (MFI) was measured using FACS Canton II (BD). Analysis was performed by the GraphPad Prism software, data were fitted, and EC50 values were calculated. The chimeric antibodies tested had strong binding to both OVCAR3 cells and PA-1 cells.

[2] = biological target: T1, human CDH6 on tumor cells (OVCAR3 …); assay: FACS, OVCAR3 cells
Description: as §1

[3] = biological target: T2, monkey CDH6 protein (cynoCDH6 ECD-his); assay: ELISA, coated antigen
Description: Human CDH6 protein (hCDH6 ECD-his, conventionally synthesized), monkey CDH6 protein (cynoCDH6 ECD-his, conventionally synthesized; the cynoCDH6 ECD sequence was derived from Uniprot #A0A2K5TW62 (19-615)), and murine CDH6 protein (mCDH6 ECD-his, conventionally synthesized; the mCDH6 ECD sequence was derived from Uniprot #P97326 (19-615)) were diluted with PBS to a final concentration of 1 μg/mL, and added to a 96-well ELISA plate at 100 μL/well. The plate was incubated at 4° C. overnight. The next day, the plate was washed 3 times with a plate washing solution (PBS+0.01% (v/v) Tween 20), and a blocking buffer (PBS+0.01% (v/v) Tween 20+2% (w/w) BSA) was added for blocking at room temperature for 2 h. The blocking buffer was discarded, and the plate was washed 3 times. The chimeric antibodies were diluted with 1% BSA+PBS (purchased from Cytiva, Cat. No. SH30264.01) and added to the 96-well plate at 50 μL/well. After incubation at 37° C. for 2 h, the plate was washed 3 times with a plate washing solution. […] The plate was incubated at 37° C. for 1 h and then washed 5 times with a plate washing solution. A TMB substrate (purchased from Seracare, Cat. No. 5120-0077) was added at 50 μL/well and incubated at room temperature for 10 min, then a stop solution (1.0 N HCl) was added at 50 μL/well. OD450 nm values were read using a microplate reader (Biotek). Analysis was performed by the GraphPad Prism software, data were fitted, and EC50 values were calculated. The chimeric antibodies tested all had strong binding to the human CDH6 protein, the monkey CDH6 protein, and the murine CDH6 protein.

EC50 [1]	Max MFI [1]	EC50 [2]	Max MFI [2]	EC50 [3]	Max OD450 [3]	Binder
1.78 nM	4690 MFI	2.14 nM	14500 MFI	0.032 nM	2.32 OD450	CHI-CDH6-11 (antibody, human IgG1, kappa, V domains shown, also called chimeric antibody of murine CDH6-11) VH: QIQLQQSGPELVKPGASVRISCKASGYTFTDYYITWVKLRPGQGLEWIGWIYPGSVNIKYNEKFKGKATLTVDTSSSTAYMQLNSLTSEDSAVYFCARGGYSWFPYWGQGTLVTVSA VL: NIVMTQSPKSMSMSVGERVTLSCKASENVHTYVSWYQQKPEQSPKLLFYGASTRNTGVPDRFTGSGSATDFTLTISSVQAEDLADYYCGQSYSYPYTFGSGTKLEIKR
1.97 nM	4440 MFI	2.08 nM	17600 MFI	0.017 nM	2.72 OD450	CHI-CDH6-13 (antibody, human IgG1, kappa, V domains shown, also called chimeric antibody of murine CDH6-13) VH: DVQLQESGPGLVKPSQSLSLTCSVTGYSITKDSYWNWIRQFPGSKLEWMGFISYDGSRHYNPSLKNRISITRDTSKNQFFLQLNSVTTEDTATYYCARRDYADYWGQGTTLTVSS VL: QIVLTQSPALMSAFPGEKVTMTCSATSSVSYIYWYQQKPRSSPKPWIYLTSNLASGVPARFSGSGSGTSYSLTINSLEAEDAATYYCQQWSSIPYTFGGGTKLEIKR
1.46 nM	3600 MFI	1.92 nM	11500 MFI	0.039 nM	2.44 OD450	NOV0712 (antibody, human IgG1, kappa, V domains shown, Positive control, variable regions from WO2018212136A1; also called positive control anti-human CDH6 antibody) VH: QVQLLESGGGLVQPGGSLRLSCAASGFTFSSHGMHWVRQAPGKGLEWVSVISGSGSNTGYADSVKGRFTISRDNSKNTLYLQMNSLRAEDTAVYYCARQWGSYAFDSWGQGTLVTVSS VL: DIQMTQSPSSLSASVGDRVTITCRASQSISSYLNWYQQKPGKAPKLLIYAVSTLQSGVPSRFSGSGSGTDFTLTISSLQPEDFATYYCQQSGTFPPTTFGQGTKVEIKR
0.26 nM	5410 MFI	0.43 nM	15700 MFI	0.039 nM	2.55 OD450	CHI-CDH6-14 (antibody, human IgG1, kappa, V domains shown, also called CHI-hCDH6-14; CH1-CDH6-14) VH: QIQLQQSGPELVKPGTSVKISCKASGYTFTDNYINWVRQRPGQGLEWIGWIYPGTGNSYYNEKFKGKATLTVDTSSSTAYMQFSSLTSEDSAVYLCASSYGDSFDYWGQGTTLTVSS VL: DIQMTQTTSSLSASLGNRVTISCRASQDIRNYLNWYQQKPDGTFKLLISYTSRLHSGVPSRFSGSGSGTDYSLTVSNLEPEDIATYYCQQYSQLPWTFGGGSRLEIKR
1.09 nM	1880 MFI	0.8 nM	9730 MFI	0.103 nM	2.18 OD450	DS-H01L02 (antibody, human IgG1, kappa, V domains shown, Positive control, variable regions from WO2018212136A1; also called positive control anti-human CDH6 antibody) VH: EVQLVQSGAEVKKPGASVKVSCKASGYTFTRNFMHWVRQAPGQGLEWMGWIYPGDGETEYAQKFQGRVTITADTSTSTAYMELSSLRSEDTAVYYCARGVYGGFAGGYFDFWGQGTLVTVSS VL: DIQMTQSPSSLSASVGDRVTITCKASQNIYKNLAWYQQKPGKAPKLLIYDANTLQTGVPSRFSGSGSGSDFTLTISSLQPEDFATYFCQQYYSGWAFGQGTKVEIKR
2.27 nM	3150 MFI	2.22 nM	12500 MFI	0.044 nM	2.45 OD450	CHI-CDH6-12 (antibody, human IgG1, kappa, V domains shown, also called CH1-CDH6-12; chimeric antibody of murine CDH6-12) VH: EVNLVESGGGLVQPGDSLTLSCSASGFTFTDYYMSWVRQFPGKALEWLALIRNKANSYTTEYSASVKGRFTISRDNSQSILYLQMNALRAEDSATYYCARDSYYSHDGFAYWGQGTLVTVSA VL: DIVLTQSPASLAVSLGQRATISCRASKSVSTSSYTYMHWYQQKPGQPPKLLIKFASYLESGVPARFSGSGSGTDFTLNIHPVEEEDAATYYCQHSREFPFTFGTGTKLEIKR
